Experimental data as given in patent US20210269521A1 (L AND L BIOPHARMA, published 2021).

Assays:
[1] = molecular target: T1, human PD-1 extracellular domain protein expressed in Example 1 (tag not stated) (human, UniProt Q15116 25-170); assay: ELISA; 15 mg/mL, His buffer pH 6.0, 37°C 0 day (-80°C)
T1 construct: extracellular domain; also called PD-1 protein; not shown: human IgG1 Fc or his tag

[2] = molecular target: T2, human TIM-3 extracellular domain-human IgG1 Fc fusion protein (human, UniProt Q8TDQ0 22-199); assay: as above
T2 construct: Made in house or bought (ACROBiosystems TM3-H5258); also called TIM-3-hFc; not shown: human IgG1 Fc

[3] = molecular target: T2, human TIM-3 extracellular domain-human …; assay: ELISA
Experimental: Goat-anti-hFc (Jackson, 109-005-008) was diluted to a concentration of 1 μg/ml with PBS buffer (pH 7.4) and added to a 96-well microplate (Corning, CLS3590-100EA) at a volume of 50 μl/well, then incubated in an incubator at 37° C. for 2 hours (Or the antigen TIM-3 was directly used to coat the microplate with a concentration of 0.5 μg/ml, and then the antibody to be tested was directly added). After discarding the liquid, a blocking solution of 5% skimmed milk (skimmed milk powder purchased from Bright) diluted with PBS was added at 200 μl per well, and the microplate was incubated for 2.5 hours at 37° C. or overnight (16-18 hours) at 4° C. for blocking. The blocking solution was discarded, and the microplate was washed 5 times with PBST buffer (PBS with pH 7.4 containing 0.05% tween-20), then 50 μl/well of 0.5 μg/ml TIM-3-hFc (Example 1) was added and incubated for 2 hours in a 37° C. incubator. After incubation, the microplate was washed 6 times with PB ST. 50 μl/well of supernatant (containing testing antibody) or different concentrations of the antibody to be tested was added, and the microplate was incubated at 37° C. for 2 hours and washed 5 times with PBST. 50 μl/well of 1:2500 diluted HRP-labeled secondary antibody (Jackson Immuno Research, 115-035-003) was added to the microplate, incubating at 37° C. for 1 hour. After washing the microplate 5 times with PBST, 50 μl/well TMB chromogenic substrate (KPL, 52-00-03) was added to the microplate, followed by incubating at room temperature for 10-15 min.
The above-mentioned TIM-3 and PD-1 bispecific antibodies of the present invention were optimized and designed using the methods of Example 2 and Example 5, and their affinity for TIM-3 and PD-1 were tested respectively.

[4] = molecular target: T1, human PD-1 extracellular domain protein …; assay: ELISA; pH 5.5, 37°C 5 days, against 0 day
[5] = molecular target: T2, human TIM-3 extracellular domain-human …; assay: ELISA; pH 5.5, 37°C 5 days, against 0 day
[6] = molecular target: T1, human PD-1 extracellular domain protein …; assay: ELISA; pH 5.5, 40°C 5 days, against 0 day
[7] = molecular target: T2, human TIM-3 extracellular domain-human …; assay: ELISA; pH 5.5, 40°C 5 days, against 0 day
[8] = molecular target: T2, human TIM-3 extracellular domain-human …; assay: ELISA, EC50 of bispecific over EC50 of the monoclonal control
[9] = molecular target: T1, human PD-1 extracellular domain protein …; assay: blocking ELISA, PD-1 coated, competitor biotin-labeled PD-L1
[10] = molecular target: T1, human PD-1 extracellular domain protein …; assay: ELISA; pH 5.5, 40°C 10 days
[11] = molecular target: T2, human TIM-3 extracellular domain-human …; assay: ELISA; pH 5.5, 40°C 10 days
[12] = molecular target: T1, human PD-1 extracellular domain protein …; assay: ELISA; PBS, 37°C 7 days, against 0 day
[13] = molecular target: T2, human TIM-3 extracellular domain-human …; assay: ELISA; PBS, 37°C 7 days, against 0 day
[14] = molecular target: T1, human PD-1 extracellular domain protein …; assay: ELISA; pH 5.5, 37°C 7 days
[15] = molecular target: T2, human TIM-3 extracellular domain-human …; assay: ELISA; pH 5.5, 37°C 7 days
[16] = molecular target: T3, human TIM-3 extracellular domain-his tag protein (human, UniProt Q8TDQ0 22-199); assay: SPR Biacore, antibody captured on Protein A, antigen in flow
T3 construct: Made in house or bought (ACROBiosystems TM3-H5229); also called TIM-3-his; Human Tim3-his; not shown: his tag
Experimental: (§1) First, Protein A (Thermo Pierce, Cat #21181) was conjugated to the biosensing chip CMS (Cat. #BR-1005-30, GE), and the chip was activated with the newly prepared 50 mM NHS (N-hydroxysuccinimide) and 200 mM EDC [1-ethyl-3-(3-dimethylaminopropyl) carbodiimide hydrochloride], then 10 μg/ml Protein A prepared with 10 mM NaAC (pH 4.0) was injected. […] The flow rate was 30 μl/min, the binding time was 180 seconds and the dissociation time is 300 seconds. Subsequently, the chip was washed for 30s with 10 mM Glycine-HCl (pH 1.5) at 30 μl/min. The data were fitted with a 1:1 Langmuir model using the software of Biacore T200 evaluation version 3.0 (GE), and the affinity value KD was obtained.

Human PD-1-his = molecular target: T4, Human PD-1-his (human, UniProt Q15116 25-170); assay: as above
T4 construct: extracellular domain; not shown: his tag
Experimental: as §1

- EC50 [1]: 0.146 nM
- EC50 [2]: 0.164 nM
- EC50 [3]: 0.081 nM
- Fold change of EC50 [4]: 1.2 ratio
- Fold change of EC50 [5]: 0.93 ratio
- Fold change of EC50 [6]: 1.1 ratio
- Fold change of EC50 [7]: 0.95 ratio
- Multiple of EC50 variation [8]: 0.83 ratio
- IC50 [9]: 1.66 nM
- EC50 [10]: 0.215 nM
- EC50 [11]: 0.373 nM
- Fold change of EC50 [12]: 1.16 ratio
- Fold change of EC50 [13]: 1.28 ratio
- EC50 [14]: 0.128 nM
- EC50 [15]: 0.157 nM
- Kd [16]: 5.05 nM
- koff [16]: 0.00393 s⁻¹
- kon [16]: 777000 M⁻¹ s⁻¹
- Kd (Human PD-1-his): 6.63 nM
- koff (Human PD-1-his): 0.00285 s⁻¹
- kon (Human PD-1-his): 430000 M⁻¹ s⁻¹
B1: bispecific antibody LB141 (bispecific antibody, human IgG4 S228P, kappa)
light: EIVLTQSPATLSLSPGERATLSCRASKGVSTSGYSYLHWYQQKPGQAPRLLIYLASYLESGVPARFSGSGSGTDFTLTISSLEPEDFAVYYCQHSRDLPLTFGGGTKVEIKRTVAAPSVFIFPPSDEQLKSGTASVVCLLNNFYPREAKVQWKVDNALQSGNSQESVTEQDSKDSTYSLSSTLTLSKADYEKHKVYACEVTHQGLSSPVTKSFNRGEC
heavy: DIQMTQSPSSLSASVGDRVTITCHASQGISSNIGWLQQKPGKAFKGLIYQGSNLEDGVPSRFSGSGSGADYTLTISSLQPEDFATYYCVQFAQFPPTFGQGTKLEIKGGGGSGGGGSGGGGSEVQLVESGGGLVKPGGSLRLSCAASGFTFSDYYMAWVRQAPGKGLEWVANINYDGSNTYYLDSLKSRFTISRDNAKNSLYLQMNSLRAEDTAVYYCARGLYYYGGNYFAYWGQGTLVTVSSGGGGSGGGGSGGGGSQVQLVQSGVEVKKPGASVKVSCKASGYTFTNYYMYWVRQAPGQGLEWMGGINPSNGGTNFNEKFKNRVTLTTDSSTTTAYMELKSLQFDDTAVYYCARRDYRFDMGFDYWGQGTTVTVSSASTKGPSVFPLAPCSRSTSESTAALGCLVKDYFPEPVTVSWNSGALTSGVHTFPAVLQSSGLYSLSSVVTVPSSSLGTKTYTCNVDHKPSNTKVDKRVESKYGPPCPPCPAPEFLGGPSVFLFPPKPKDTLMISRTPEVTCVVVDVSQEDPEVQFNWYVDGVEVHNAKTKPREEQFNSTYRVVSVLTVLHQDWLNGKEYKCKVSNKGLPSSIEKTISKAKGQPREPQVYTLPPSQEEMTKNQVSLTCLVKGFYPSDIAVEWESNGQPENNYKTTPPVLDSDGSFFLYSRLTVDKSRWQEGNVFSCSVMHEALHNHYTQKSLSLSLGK
notes: ab6VL-(G4S)3-ab6VH-(G4S)3-PemVH-hIgG4 with PemVL-κ
